Structures can show the parent of a compound that is named as a salt.

The data set is described as follows: Pharmacokinetics - neutralization experiment with avidin i.v. in rat. Particulars: s.c. 500 nmol/kg. The format is in vivo. How it is done: 3.2 Pharmacokinetics—Neutralization Experiment:
Rats were treated with compound 10, 12, or 27 at a dose of 100 nmol/kg s.c. At t=1 h, a blood sample was taken and 10 mg/kg of Avidin (from egg white, Sigma) was administered i.v. to the rats treated with compound 10 or 12. Blood was sampled at 0.5-1-3-6 and 23 hours subsequently. The blood was treated as described in the pharmacokinetic experiment and the concentration of the samples was determined by measuring the (residual) anti-Xa activity. (FIG. 8)
In a separate experiment compound 10, 17 or 26 was administered at a dose of 500 nmol/kg s.c. after which blood was collected at 24 hours. Then 10 mg/kg avidin was administered intravenously and blood was collected at 25 and 26 hours. (FIG. 9)

On to `CO[C@H]1O[C@H](COS(=O)(=O)O)[C@@H](O[C@@H]2O[C@@H](C(=O)O)[C@@H](O[C@H]3O[C@H](COS(=O)(=O)O)[C@@H](O[C@@H]4O[C@H](C(=O)O)[C@@H](O[C@H]5O[C@H](COS(=O)(=O)O)[C@@H](OCCOCCOCCOCCNC(=O)[C@H](CCCCN(C)C(=O)CCCC[C@@H]6SC[C@@H]7NC(=O)N[C@@H]76)NC(=O)COCCOCCOCCOCCNC(=O)c6cccc(S(=O)(=O)N[C@@H](Cc7ccc(OCCCCC8CCNCC8)cc7)C(=O)O)c6)[C@H](OC)[C@H]5OC)[C@H](OC)[C@H]4OC)[C@H](OS(=O)(=O)O)[C@H]3OS(=O)(=O)O)[C@H](OC)[C@H]2OC)[C@H](OS(=O)(=O)O)[C@H]1OS(=O)(=O)O` [Compound 26, sodium salt], for which the level at time molar at 24 h (plasma, sc, 24 h, before avidin, read-out: Plasma level T = 24 h) was determined as 1070 ± 58 nM. Besides, the “Plasma level T = 26 h” value (2 hours after avidin 10 mg/kg i.v. at t = 24 h) stood at 361 ± 26 nM. In addition, the “% reduction of plasma concentration” value (within 2 hours after avidin 10 mg/kg i.v. at t = 24 h, sodium salt) stood at 66%.

(Values after patent US8183228B2, “Anticoagulant antithrombotic dual inhibitors comprising a biotin label” (MSD OSS B.V. Netherlands, priority 2005, dated 2012).)
